In general, stoichiometry N refers to the number of molecules, sites or subunits per partner or assembly.

Data set [1] concerns the molecule itself. Briefly: SEC-MALS. (In general: In gel filtration, larger molecules generally elute earlier.)
Data set [2] deals with the molecule itself. Kind of data set: SEC-MALS. The source holds these as a separate data set.

Numbering of substitutions follows the chain as printed. Names may count otherwise. Read-outs that look alike come from different tables or passages of the source.

B1: ATL3 22-442 WT (soluble domain: GTPase domain, linker and 3HB middle domain) (domain or fragment, human, UniProt Q6DD88 22-442, looked up)
chain: SKPGPVQVVLVQKDQHSFELDEKALASILLQDHIRDLDVVVVSVAGAFRKGKSFILDFMLRYLYSQKESGHSNWLGDPEEPLTGFSWRGGSDPETTGIQIWSEVFTVEKPGGKKVAVVLMDTQGAFDSQSTVKDCATIFALSTMTSSVQIYNLSQNIQEDDLQQLQLFTEYGRLAMDEIFQKPFQTLMFLVRDWSFPYEYSYGLQGGMAFLDKRLQVKEHQHEEIQNVRNHIHSCFSDVTCFLLPHPGLQVATSPDFDGKLKDIAGEFKEQLQALIPYVLNPSKLMEKEINGSKVTCRGLLEYFKAYIKIYQGEDLPHPKSMLQATAEANNLAAAASAKDIYYNNMEEVCGGEKPYLSPDILEEKHCEFKQLALDHFKKTKKMGGKDFSFRYQQELEEEIKELYENFCKHNGSKNVFSTFR
On to B1, for which the “stoichiometry N” value in the data set “SEC-MALS [1]” worked out at 2.

B2: ATL3 22-442 Y192C (domain or fragment, human, UniProt Q6DD88 22-442, looked up)
chain: B1 chain with Y171C
B2: the “stoichiometry N” value in “SEC-MALS [1]” came out at 2.

B3: ATL3 22-442 P338R (domain or fragment, human, UniProt Q6DD88 22-442, looked up)
chain: B1 chain with P317R
In the case of B3, in “SEC-MALS [2]”, the “stoichiometry N” value worked out at 2.

The record behind these values is publication doi:10.1101/192484 (bioRxiv, 2018).
